According to the Human Domainome abundance scans (Beltran et al. 2025):
± gives the uncertainty stated by the source.

B1: Pituitary-specific positive transcription factor 1, residues 130 to 198; numbered along this chain, P28069 (parent)
chain: RELEKFANEFKVRRIKLGYTQTNVGEALAAVHGSEFSQTTICRFENLQLSFKNACKLKAILSKWLEEAE

Variants of: B1
Assay: abundance fitness (aPCA) (normalised: wild type 0, dead -1); higher = more abundant; growth selection in yeast, the domain comes from the species named
Settings: Homo sapiens

First: L47V
Second: L47S
The abundance fitness of the first is lower: -0.888 ± 0.19 for the first, -0.168 ± 0.072 for the second.

First: V31F
Second: V31R
The abundance fitness of the first is lower: -0.34 ± 0.16 for the first, -0.053 ± 0.052 for the second.

Going from V31H to V31E, the abundance fitness rises from -0.574 ± 0.27 to -0.013 ± 0.072.

Going from V31I to K52W, the abundance fitness falls from 0.027 ± 0.073 to -0.408 ± 0.11.

K52Y and K52E are within error of each other in abundance fitness: 0.057 ± 0.11 for the first, 0.108 ± 0.086 for the second.

Compared with K52Q, K52G is lower in abundance fitness: 0.022 ± 0.098 for the first, -0.149 ± 0.05 for the second.

E35L and E35F are within error of each other in abundance fitness: -0.222 ± 0.045 for the first, -0.262 ± 0.1 for the second.

First: E35S
Second: E35C
The abundance fitness of the first is higher: -0.051 ± 0.058 for the first, -0.182 ± 0.063 for the second.

Going from F36L to F36P, the abundance fitness falls from -0.393 ± 0.049 to -0.702 ± 0.16.

F36K and F36Q are within error of each other in abundance fitness: -0.744 ± 0.13 for the first, -0.517 ± 0.097 for the second.

F36N and E2D are within error of each other in abundance fitness: -0.758 ± 0.49 for the first, -0.109 ± 0.2 for the second.

Compared with E2W, E2V is lower in abundance fitness: -0.541 ± 0.094 for the first, -0.895 ± 0.18 for the second.

E2N and E2P are within error of each other in abundance fitness: -0.518 ± 0.19 for the first, -0.462 ± 0.19 for the second.

First: Q21S
Second: Q21V
The abundance fitness of the first is lower: -0.506 ± 0.058 for the first, -0.278 ± 0.064 for the second.

Q21K and Q21F are within error of each other in abundance fitness: -0.702 ± 0.11 for the first, -0.932 ± 0.28 for the second.

Compared with L3H, L3Y is higher in abundance fitness: -0.611 ± 0.18 for the first, -0.22 ± 0.13 for the second.

Q48F and Q48Y are within error of each other in abundance fitness: -0.889 ± 0.4 for the first, -0.79 ± 0.41 for the second.

Q48V and Q48I are within error of each other in abundance fitness: -0.574 ± 0.081 for the first, -0.758 ± 0.23 for the second.

Q48H and Q48L are within error of each other in abundance fitness: -0.66 ± 0.2 for the first, -0.406 ± 0.065 for the second.

Going from N53W to N53K, the abundance fitness rises from -0.271 ± 0.1 to 0.21 ± 0.077.

First: N53G
Second: A30Y
The abundance fitness of the first is higher: -0.087 ± 0.074 for the first, -0.633 ± 0.13 for the second.

Going from A30L to A30P, the abundance fitness falls from -0.217 ± 0.067 to -0.468 ± 0.091.

A30E and A30I are within error of each other in abundance fitness: -0.128 ± 0.073 for the first, -0.309 ± 0.15 for the second.

L57A and L57E are within error of each other in abundance fitness: -0.449 ± 0.064 for the first, -0.345 ± 0.12 for the second.

L57T and L57H are within error of each other in abundance fitness: -0.262 ± 0.064 for the first, -0.226 ± 0.11 for the second.

Compared with L57C, L57S is lower in abundance fitness: -0.228 ± 0.086 for the first, -0.534 ± 0.08 for the second.

Going from L57F to E9C, the abundance fitness falls from -0.126 ± 0.077 to -0.714 ± 0.26.

E9S and E9L are within error of each other in abundance fitness: -0.213 ± 0.082 for the first, -0.246 ± 0.1 for the second.

Going from E69C to R1K, the abundance fitness rises from -0.537 ± 0.11 to 0.376 ± 0.14.

R1F and R1L are within error of each other in abundance fitness: -0.128 ± 0.23 for the first, -0.306 ± 0.37 for the second.

R1T and R1I are within error of each other in abundance fitness: -0.371 ± 0.19 for the first, -0.508 ± 0.15 for the second.

F44V and F44D are within error of each other in abundance fitness: -0.974 ± 0.12 for the first, -0.866 ± 0.28 for the second.

F44T and F44G are within error of each other in abundance fitness: -1.06 ± 0.23 for the first, -1.03 ± 0.2 for the second.

F44P and F44Y are within error of each other in abundance fitness: -0.936 ± 0.19 for the first, -0.842 ± 0.13 for the second.

F44W and G18V are within error of each other in abundance fitness: -0.909 ± 0.17 for the first, -0.912 ± 0.16 for the second.

G18F and G18R are within error of each other in abundance fitness: -0.681 ± 0.21 for the first, -0.84 ± 0.11 for the second.

G18L and G18D are within error of each other in abundance fitness: -0.62 ± 0.1 for the first, -0.556 ± 0.15 for the second.

G18W and G18H are within error of each other in abundance fitness: -0.83 ± 0.23 for the first, -0.742 ± 0.28 for the second.

C55V and C55L are within error of each other in abundance fitness: 0.15 ± 0.039 for the first, 0.121 ± 0.055 for the second.

C55T and C55Y are within error of each other in abundance fitness: -0.098 ± 0.13 for the first, 0.012 ± 0.08 for the second.

C55W and C55I are within error of each other in abundance fitness: -0.14 ± 0.12 for the first, 0.046 ± 0.12 for the second.

S37I and S37M are within error of each other in abundance fitness: -0.697 ± 0.21 for the first, -0.823 ± 0.11 for the second.
